B1: full-length PEX5 fused to GFP (receptor)
chain: not shown
modifications: C-terminal GGSGGS linker and mEGFP left out
B2: entire unstructured N-terminal region (including the YG domain) of Arabidopsis thaliana PEX13, amino acids 1–193 (domain or fragment)
chain: MASQPAGGSPPKPWEKEGNTSGPNPFRPPSNTSTAGSVEASGTANPGEVVPPPVNRPNTAANMNSLSRPVPARPWEQQNYGSTMGGGYGSNLGMTSGYGSGTYGSALGGYGSSYGGGMYGGSSMYRGGYGGGGLYGSSGMYGGGAMGGYGGTMGGYGMGMGTGMGMGMGMGMGGPYGSQDPNDPFNQPPSPPGC
notes: PEX13 of Arabidopsis thaliana, GenBank NP_187412.1, amino acids 1-193; single engineered cysteine at the C terminus for covalent derivatization; In the permeation assay it stood as a hydrogel droplet formed at 40 mg/ml (2 mM); also called N-terminal fragment; full-length fragment; source: E. coli BL21 Rosetta 2(DE3), purified under denaturing conditions (Ni-NTA), tag removed with TEV protease; …
B3: isolated YG domain of Arabidopsis thaliana PEX13, amino acids 76–193 (domain or fragment)
chain: EQQNYGSTMGGGYGSNLGMTSGYGSGTYGSALGGYGSSYGGGMYGGSSMYRGGYGGGGLYGSSGMYGGGAMGGYGGTMGGYGMGMGTGMGMGMGMGMGGPYGSQDPNDPFNQPPSPPGC
notes: PEX13 of Arabidopsis thaliana, GenBank NP_187412.1, amino acids 76-193 (YG domain); single engineered cysteine at the C terminus for covalent derivatization; also called YG domain alone; source: E. coli BL21 Rosetta 2(DE3), purified under denaturing conditions (Ni-NTA), tag removed with TEV protease; not shown: 14×His, N-terminal, cleaved

Series [1] has as its target B2. Nature of the series: hydrogel permeation assay (confocal microscopy); droplets of the PEX13 1-193 hydrogel (40 mg/ml) in 25 mM HEPES-KOH pH 7.8, 130 mM KCl; GFP fusion proteins or GFP alone added at 500 nM; enrichment inside the gel over buffer after 30 min. The conditions noted are these: both partners purified.
Series [2] deals with the molecule itself. The series can be described thus: hydrogel formation (gelation); purified fragment concentrated to 40 mg/ml (2 mM) in 2 M urea, 50 mM HEPES-NaOH pH 8.0, 1 mM TCEP, 1 mM EDTA, left in silicone tubing at room temperature, squeezed out and photographed.

For the molecule B1, the “fold enrichment inside the gel over buffer” value in series [1] is ~20 fold.

Turning to B2, the binding result in series [2] was “binds”. Same read-out and setting: to B3 belongs “binds”.

Source of the values: PMC9795577, “Protein import into peroxisomes occurs through a nuclear pore-like phase” (Science (New York, N.Y.), 2022).
